{"source": "patent US20230190883A1", "about": "“STABLE PEPTIDES HAVING RENALASE AGONIST ACTIVITY” (Bessor Pharma, LLC, priority 2020, published 2023)", "tested_on": "carrageenan-induced Paw edema", "experiment": "carrageenan-induced paw edema (CPE) model in mice", "assay_type": "in vivo, CD-1 mice", "conditions": "3 mpk", "excerpt": "This test is a rapid in vivo model for evaluation of anti-inflammatory efficacy of test articles. The CPE model in mice quantitativdy assesses inhibition of edema enduced by subplantarinjection of carrageenan. […] Carrageenan-induced inflammation invoves extravasation of polymorphonuclear leukocytes from circulation to the site of inflammation. The subsequent release of myeloperoxidase and other cytokines within the interstitial tissues results in plasma exudation into the site of inflammation. The increased paw volume is measured by water displacement. Anti-inflammatory drugs reduce the paw edema.\n• 1. Receive (SOP 1910, SOP 1920) and quarantine (SOP 560) 125 CD-1 mice (Charles River Laboratories, male, 5-6 weeks old). • 2. Animals are ear tagged (SOP 810), weighed, and sorted into 9 groups with 10 animals/group and 5 groups of 7 animals/group based upon average body weight. • 3. Prepare 3% carrageenan solution: • 1) Preparation at least 2 weeks in advance of use. • 2) Weigh out 600 mg A-carrageenan into a glass beaker. • 3) Add 20 ml deionized water. • 4) Stir on mild heat until carrageenan fully dissolved. • 5) Cool solution to ambient temperature. • 6) Store at 4-8° C. • 4. Until the day of use the renalase peptides are stored at -20° C. as dry powder. • 5. DAY 0 • a. Prepare test material in sterile saline (vehicle). • b. On the day of dosing, renalase peptides are dissolved. • c. On day prior to administration check carrageenan solution for clarity (no visible evidence of contamination). • 1) Equilibrate carrageenan to ambient temperature. • d. Record mouse weights in laboratory notebook. • e. Measure and record paw initial paw volumes: • 1) Place beaker of water on balance and tare to zero. • 2) Place right hind limb in the beaker of water on the scale with the top of the hock centered in the meniscus of the water. Record read-out on the scale. • 3) The foot must be dried after each measurement as wet feet will change the readout. • 4) Re-tare the scale between measurements to account for decrease in water volume. • f. […]\nThe test was also conducted to compare the inhibition of inflammation by peptide 10 as compared to the corresponding peptide fragment without the alanine substitution at position 220 (peptide 81).", "note": "Marks after values point to notes of the source that are not given here."}
{"molecule": "Renalase: RNLS is a 37 kD secretory protein that is primarily made by kidney proximal renal tubules cells (protein, UniProt Q5VYX0 18-342, looked up) Renalase: ALLRRQTSGPLYLAVWDKAEDSGGRMTTACSPHNPQCTADLGAQYITCTPHYAKKHQRFYDELLAYGVLRPLSSPIEGMVMKEGDCNFVAPQGISSIIKHYLKESGAEVYFRHRVTQINLRDDKWEVSKQTGSPEQFDLIVLTMPVPEILQLQGDITTLISECQRQQLEAVSYSSRYALGLFYEAGTKIDVPWAGQYITSNPCIRFVSIDNKKRNIESSEIGPSLVIHTTVPFGVTYLEHSIEDVQELVFQQLENILPGLPQPIATKCQKWRHSQVTNAAANCPGQMTLHHKPFLACGGDGFTQSNFDGCITSALCVLEALKNYI", "values": [{"measurement": "percent change from control, paw edema, 2 hr after carrageenan", "setting": "2 hr after carrageenan", "value": "60.1* percent"}, {"measurement": "percent change from control, paw edema, 4 hr after carrageenan", "setting": "4 hr after carrageenan", "value": "35.3* percent"}, {"measurement": "percent change from control, paw edema, 6 hr after carrageenan", "setting": "6 hr after carrageenan", "value": 4.5, "unit": "%"}, {"measurement": "percent change from control, paw edema, 10 hr after carrageenan", "setting": "10 hr after carrageenan", "value": 23.7, "unit": "%"}]}
